# Source: article PMC11109483
# Molecular target: biotinylated HIP1 (22-309) (UniProt O00291)
# Experiment: SPR; Biacore T200, 25°C; biotinylated HIP1(22-309) immobilised on Sensor Chip NA (900 RU); Ub chains as analytes 60 nM to 250 uM, multicycle; 50 mM Hepes pH 7.5, 300 mM NaCl, 0.5 mM TCEP, 0.05% Tween-20, 1% BSA; steady-state affinity model
# Sequence of UniProt O00291 (O00291 22-309): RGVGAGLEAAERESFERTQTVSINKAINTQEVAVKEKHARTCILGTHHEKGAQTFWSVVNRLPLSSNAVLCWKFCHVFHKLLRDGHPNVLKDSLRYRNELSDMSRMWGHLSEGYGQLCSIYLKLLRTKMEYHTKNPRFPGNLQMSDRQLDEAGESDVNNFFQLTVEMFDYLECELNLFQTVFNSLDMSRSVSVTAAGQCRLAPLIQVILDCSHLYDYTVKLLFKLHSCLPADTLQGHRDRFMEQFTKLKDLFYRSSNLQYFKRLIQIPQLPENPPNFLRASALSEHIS
row,Kd,Substance
1,1.89 µM,K63-linked Ub2 (from UniProt P0CG48 1-76; P0CG48 1-76)
2,1.55 µM,K63-linked Ub3 (from UniProt P0CG48 1-76; P0CG48 1-76)
3,66.2 µM,K48-linked Ub3 (from UniProt P0CG48 1-76; P0CG48 1-76)
4,137 µM,K48-linked Ub2 (from UniProt P0CG48 1-76; P0CG48 1-76)
